The target of experiment [1] is T1, human FcγRIa extracellular domain with C-terminal His-tag (human, UniProt P12314 16-292).
T1 construct: extracellular domain; also called hFcγR Ia; hFcγRIa
Description: SPR Biacore T200, captured Ab, pH 7.4. (SPR reads the build-up and loss of mass on a sensor chip optically.)

Experiment [2] concerns the target T2, human FcγRIIIa F allotype extracellular domain with C-terminal His-tag (human, UniProt P08637 17-208).
T2 construct: extracellular domain; also called hFcγR IIIa F
Description: SPR Biacore T200, captured Ab, pH 7.4.

Experiment [3] has as its target T3, human FcγRIIa R allotype extracellular domain with C-terminal His-tag (human, UniProt P12318 34-217).
T3 construct: extracellular domain; also called hFcγR IIa R
T3 sequence (looked up): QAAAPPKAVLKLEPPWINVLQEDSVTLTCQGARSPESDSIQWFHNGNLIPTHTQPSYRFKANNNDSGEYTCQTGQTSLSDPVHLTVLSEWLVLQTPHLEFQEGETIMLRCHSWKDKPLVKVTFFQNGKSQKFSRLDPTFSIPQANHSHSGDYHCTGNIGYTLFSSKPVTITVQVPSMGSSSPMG
Description: SPR Biacore T200, captured Ab, pH 7.4.

Experiment [4] has as its target T4, human FcγRIIa H allotype extracellular domain with C-terminal His-tag (human, UniProt P12318 34-217).
T4 construct: extracellular domain; also called hFcγR IIa H
T4 sequence (looked up): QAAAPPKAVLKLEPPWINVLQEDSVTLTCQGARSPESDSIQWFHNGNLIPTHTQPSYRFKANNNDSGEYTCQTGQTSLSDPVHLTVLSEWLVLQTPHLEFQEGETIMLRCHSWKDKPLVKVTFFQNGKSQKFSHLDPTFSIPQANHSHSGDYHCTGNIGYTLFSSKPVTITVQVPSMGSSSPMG
Description: SPR Biacore T200, captured Ab, pH 7.4.

Experiment [5] deals with T5, human FcγRIIb extracellular domain with C-terminal His-tag (human, UniProt P31994 43-217).
T5 construct: extracellular domain; also called hFcγR IIb
T5 sequence (looked up): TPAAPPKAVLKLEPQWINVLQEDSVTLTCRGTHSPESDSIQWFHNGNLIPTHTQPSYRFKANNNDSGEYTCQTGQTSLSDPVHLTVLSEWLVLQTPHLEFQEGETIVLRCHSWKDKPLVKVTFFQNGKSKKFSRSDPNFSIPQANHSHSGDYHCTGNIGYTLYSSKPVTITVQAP
The experiment can be described thus: SPR; binding amount divided by that of 04H1389-G1m/04L1305-k0MT.

The target of experiment [6] is T6, human FcγRIIIa V allotype extracellular domain with C-terminal His-tag (human, UniProt P08637 17-208).
T6 construct: extracellular domain; also called hFcγR IIIa V
Description: SPR; KD of 04H1389-G1m/04L1305-k0MT divided by KD of variant.

In experiment [7] the target is T1, human FcγRIa extracellular domain with …. The description is as above.
The target of experiment [8] is T2, human FcγRIIIa F allotype extracellular …. Described as above.
In experiment [9] the target is T7, human FcRn (human, UniProt P55899 24-290; P61769 21-119).
T7 construct: Prepared by the method of WO 2010/107110; also called hFcRn
The description is as above.

The target in experiment [10] is T3, human FcγRIIa R allotype extracellular …. Described as above.
For experiment [11], the target named is T4, human FcγRIIa H allotype extracellular …. The description is as above.
Experiment [12] addresses T5, human FcγRIIb extracellular domain with …. Description: SPR; FcγRIIb bound amount per unit captured Ab.
For experiment [13], the target named is T6, human FcγRIIIa V allotype extracellular …. Description: SPR Biacore T200, captured Ab, pH 7.4, steady state model.
Experiment [14] addresses T7, human FcRn. The experiment can be described thus: SPR Biacore T200, captured Ab, pH 6.0, steady state.

T7 sequence (P55899 24-290 limits assumed, chain 1 of 2): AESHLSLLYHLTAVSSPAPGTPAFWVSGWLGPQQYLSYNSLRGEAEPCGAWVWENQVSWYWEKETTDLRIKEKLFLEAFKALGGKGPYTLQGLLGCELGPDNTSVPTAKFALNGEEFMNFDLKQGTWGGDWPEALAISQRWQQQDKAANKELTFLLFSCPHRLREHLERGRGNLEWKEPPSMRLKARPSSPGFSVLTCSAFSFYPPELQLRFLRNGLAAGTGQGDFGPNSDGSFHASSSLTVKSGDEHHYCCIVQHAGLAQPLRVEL
T7 sequence (P61769 21-119 limits assumed, chain 2 of 2): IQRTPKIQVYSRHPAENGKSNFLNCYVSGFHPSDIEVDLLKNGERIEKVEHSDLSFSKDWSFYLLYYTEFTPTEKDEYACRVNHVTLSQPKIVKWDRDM
T1 sequence (P12314 16-292): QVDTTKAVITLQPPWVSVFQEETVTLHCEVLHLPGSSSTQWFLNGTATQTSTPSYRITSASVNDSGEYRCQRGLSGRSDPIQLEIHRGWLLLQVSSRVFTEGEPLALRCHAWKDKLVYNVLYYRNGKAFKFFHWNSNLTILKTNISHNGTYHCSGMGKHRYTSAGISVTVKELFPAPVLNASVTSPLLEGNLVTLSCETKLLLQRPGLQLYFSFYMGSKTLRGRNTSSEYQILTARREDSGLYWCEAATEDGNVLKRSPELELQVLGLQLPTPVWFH
T2 sequence (P08637 17-208): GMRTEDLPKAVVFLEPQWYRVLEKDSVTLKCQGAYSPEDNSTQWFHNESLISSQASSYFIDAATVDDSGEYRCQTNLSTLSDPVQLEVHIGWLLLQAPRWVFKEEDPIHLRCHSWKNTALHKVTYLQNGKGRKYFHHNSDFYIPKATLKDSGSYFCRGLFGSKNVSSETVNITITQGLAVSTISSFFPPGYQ
T6 sequence (P08637 17-208 F176V): as the sequence (P08637 17-208) above, with F160V counted along it

B1: 04H1389-G1m/04L1305-k0MT (antibody, human IgG1, kappa)
heavy: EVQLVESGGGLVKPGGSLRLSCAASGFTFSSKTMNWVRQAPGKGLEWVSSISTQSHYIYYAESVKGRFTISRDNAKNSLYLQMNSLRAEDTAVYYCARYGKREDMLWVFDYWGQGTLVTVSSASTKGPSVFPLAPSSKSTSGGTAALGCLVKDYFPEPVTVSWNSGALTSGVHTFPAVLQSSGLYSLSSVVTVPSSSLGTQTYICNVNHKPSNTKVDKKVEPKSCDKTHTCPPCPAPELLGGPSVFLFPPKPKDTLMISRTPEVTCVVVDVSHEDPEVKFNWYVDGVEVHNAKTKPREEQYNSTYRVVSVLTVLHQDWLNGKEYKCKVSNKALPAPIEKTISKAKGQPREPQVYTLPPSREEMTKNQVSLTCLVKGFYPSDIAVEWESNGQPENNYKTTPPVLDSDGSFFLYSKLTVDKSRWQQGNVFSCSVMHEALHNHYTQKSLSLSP
light: DIVMTQSPLSLPVTPGEPASISCDGPSTGVGDYNYVHWYQQKPGQAPRLLIYFTSKKPSGVPDRFSGSGSGTDFTLKISRVEAEDVGVYYCQTYAAPLGPMFGQGTKLEIKRTVAAPSVFIFPPSDEQLKSGTASVVCLLNNFYPREAKVQWKVDNALQSGNSQESVTEQDSKDSTYSLSSTLTLSKADYEKHKVYACEVTHQGLSSPVTKSFNRGEC
In the case of B1, the Kd (in general, the free concentration of one partner at which half of the binding sites on the other are occupied at equilibrium, for simple one-to-one binding) is 0.069 nM in experiment [1]; 690 nM in [2]; 1600 nM in [3]; 1100 nM in experiment [4]; 880 nM in experiment [13]; 1000 nM in [14]. In experiment [5], this molecule registered a Relative binding amount of 1. Besides, the “Relative value to KD between G1m and hFcγRs” value in experiment [6], in experiment [7], in [8], in experiment [10] and in [11] was 1 in each case. Moreover, the “Relative value to KD between G1m and hFcRn” value in experiment [9] is 1. Moreover, in [12], the Binding amount is 0.011.

Values taken from patent US20260022175A1 (Chugai, published 2026).
